The record followed here is US20250042994A1 (HAINAN SIMCERE ZAIMING PHARMACEUTICAL, published 2025).

Sequences and labels used below:
T1: Human CD19-his protein (human, UniProt P15391 20-291)
T1 construct: bought protein; also called human CD19 protein; recombinant human CD19-His; not shown: His tag
T1 sequence (looked up): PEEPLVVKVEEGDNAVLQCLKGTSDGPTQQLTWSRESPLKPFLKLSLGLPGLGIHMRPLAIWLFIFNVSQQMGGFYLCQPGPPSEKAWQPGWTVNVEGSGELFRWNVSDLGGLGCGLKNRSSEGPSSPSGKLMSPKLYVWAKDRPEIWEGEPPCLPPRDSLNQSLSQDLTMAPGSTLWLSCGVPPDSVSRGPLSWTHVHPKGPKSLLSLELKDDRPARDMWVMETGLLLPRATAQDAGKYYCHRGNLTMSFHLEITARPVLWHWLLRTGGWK

T2: human CD19 exon1-3-his protein (human, UniProt P15391 20-186, limits assumed)
T2 construct: made in HEK293E cells; also called membrane-distal end; not shown: His tag
T2 sequence (looked up): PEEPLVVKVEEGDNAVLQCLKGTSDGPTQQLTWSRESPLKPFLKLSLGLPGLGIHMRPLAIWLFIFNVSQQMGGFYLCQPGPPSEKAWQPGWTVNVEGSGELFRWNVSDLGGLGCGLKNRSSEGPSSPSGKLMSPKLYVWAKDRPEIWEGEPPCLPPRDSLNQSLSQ

T3: murine CD19 protein (murine, UniProt P25918 17-287, limits assumed)
T3 construct: bought protein; also called commercial murine CD19
T3 sequence (looked up): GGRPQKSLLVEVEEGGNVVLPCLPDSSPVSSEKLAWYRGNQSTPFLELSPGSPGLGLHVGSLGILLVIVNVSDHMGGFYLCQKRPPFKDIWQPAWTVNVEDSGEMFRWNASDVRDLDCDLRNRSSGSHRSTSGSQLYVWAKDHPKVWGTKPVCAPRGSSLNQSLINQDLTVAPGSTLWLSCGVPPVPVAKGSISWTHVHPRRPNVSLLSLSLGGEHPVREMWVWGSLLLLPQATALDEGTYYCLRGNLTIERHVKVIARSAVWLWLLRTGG

B1: F3.81.2 (antibody, human IgG1, V domains shown)
VH: QVQLQQPGAELVMPGASVKLSCKASAYTFTNYWMHWVKQRPGHGLEWIGEIDPSDSYTDYNQNFKAKATLTVDKSSSTAYMQLSSLTSEDSAVYYCARLMGRYFDVWGTGTTVTVSS
VL: DIVMTQSHKFMSTSVGDRVSITCKASQDVSAAVAWYQQKPGQSPKLLINSASYRYTGVPDRFTGSGSGTDFTFTISSVQAEDLAVYYCQQHYSTPLTFGAGTKLELR
notes: human-murine chimeric antibody, human IgG1
B2: F6.12.12 (antibody, human IgG1, V domains shown)
VH: DVQLQESGPGLVKPSQSLSLTCSVTGYSITSGYYWIWIRQFPGNKLEWMGYISYDASNKYKPSLKNRISITRDTSKNQFFLKLNSVTAEDTATYFCAREDLRGYFDVWGTGTSVTVSS
VL: DIVLTQSPASLAVSLGRRATISCRASQSVSTSGFSYMHWYQQKPGQPPNLLIKYASILQSGVPARFSGSGSGTDFILNIHPVEDVDTATYYCQHSWGIPFTFGSGTKLEIK
notes: as for B1
B3: F3.5.1 (antibody, human IgG1, V domains shown)
VH: QAQLQQSGPELVKPGASVKISCKASGYAFSGSWMNWVQQRPGKGLEWIGRIYPGDGDTYYNGKFKDKAILTADKSSSTAYMQLSSLTSEDSAVYFCAQLRYRYVMDYWGQGTSVTVSS
VL: DIVLTQSPASLAVSLGQRATISCRASESVSIHGSHLMHWYQQKPGQPPRLLIYAASNLESGVPARFSGSGSETDFTLNIHPVEEEDAATYFCQQGIKDPYTFGGGTKLEIK
notes: as for B1
B4: F3.40.14 (antibody, human IgG1, V domains shown)
VH: B3 VH with N61S, K74T, Y101S, T112A
VL: B3 VL with S34T, K97D
notes: as for B1
B5: F6.5.20 (antibody, human IgG1, V domains shown)
VH: QVQLQQPGAELVKPGASVKLSCKASGYTFTSYWMQWVKQRPGQGLEWIGEIDPSDSYTNYNQKFKGKASLTVDTSSSTAYMQLSSLTSEDSAVYYCARWGLLRNYYVMDYWGQGTSVTVSS
VL: EIVLTQSPTTMAASPGEKITITCSASSSISSNYLHWYQQKPGFSPKLLIYRTSNLASGVPARFSGSGSGTSYSLTIGTMEAEDVATYYCQQGSSIPRMLTFGAGTKLELK
notes: as for B1
B6: F3.114.12 (antibody, human IgG1, V domains shown)
VH: DVQLQESGPGLVKPSQSLSLTCSVTGYSITSGYDWNWIRQFPGNKLEWMGYISYDGKNNYNPSLRNRISITRDTSKNQFFLKLNSVTTEDTATYYCARRDLRGYFDVWGTGTTVTVSS
VL: DIVLTQSPATLSVTPGDRVSLSCRASQSISNYLHWYQQKSHESPRLLIKYASLSISGIPSRFSGSGSGTDFTLSINSVETEDFGVYFCQQSNSWPLTFGAGTKLELK
notes: as for B1
B7: F3.13.2 (antibody, human IgG1, V domains shown)
VH: DVQLQESGPGLMKPSQSLSLTCSVTGYSITSGYYWNWIRQFPGNKLEWMGYISYDGSNNYNPSLKNRFSITRDTSKNQFFLKLNSVTTEDTATYYCARRKLTGGPYFDYWGQGTTLTVSS
VL: DIVLTQSPASLAVTLGQRATISCRASESVSFHGFHIMHWYQQKPGQPPKLLIYAASHLVSGVPDRFSGSGSETDFTLNIHPVEEEDAAAYFCQQSVEDPWTFGGGTKLEIK
notes: as for B1
B8: F3.3.10 (antibody, human IgG1, V domains shown)
VH: DVQLQESGPGLAKLSQSLSLTCSVTGYSITSGYYWNWIRQFPGNKLEWMGHISYDGNNNYNPSLKNRISITRDTSKNQFFLKLNSVTTEDTATYYCARENYSNYYFDYWGQGTTLTVSS
VL: DIVLTQSPASLAVSLGQRATISCRASQSVSKSSYTYIHWYQQKPGQPPKLLIKYASILQSGVPARFSGSGSGTDFTLNFHPVEEEDTATYYCQHSWEIPYTFGGGTKLEIK
notes: as for B1
B9: F3.83.9 (antibody, human IgG1, V domains shown)
VH: B8 VH with A12V, L14P, H51Y, N57G, Y95F, N100D, Y104W, Y108V, Q111T, L115V
VL: B8 VL with T35S, I37M, P47S, Q59K, F79I, Y100W
notes: as for B1

Numbering of substitutions follows the chain as printed.

The first test addresses T1, Human CD19-his protein. Kind of test: ELISA, antibody at 100 nM. The method, then:
(§1) Human CD19-his protein (purchased from ACROBiosystems, catalog number: CD9-H52H2) was diluted with PBS to a final concentration of 4 μg/mL, and then added to a 96-well ELISA plate at 100 μl/well. The plate was sealed with a plastic film and incubated overnight at 4° C., the plate was washed 2 times with PBS the next day, and then a blocking solution [PBS+2% (w/w) BSA] was added for blocking at room temperature for 2 h. The blocking solution was poured off, and 100 nM gradiently diluted CD19 chimeric antibody or control antibody was added at 50 μl/well. After incubation at 37° C. for 2 h, the plate was washed 3 times with PBS. […] TMB substrate was added at 50 μl/well, and incubated at room temperature for 10 min, and then a stop solution (1.0 N HCl) was added at 50 μl/well. The OD450 nm values were read by an ELISA microplate reader (Multimode Plate Reader, EnSight, purchased from Perkin Elmer).
On the technique in general: An ELISA detects its analyte on a solid surface through an enzyme-linked reagent.
Molecule B1 yielded an OD450 of 1.4.
With B2, the OD450 was found to be 1.32.
Take B3: the OD450 is 2.01.
In turn, B4 showed an OD450 of 1.19.
Molecule B5 had an OD450 of 0.63.
On to B6, for which the OD450 is 0.61.
B7 yielded an OD450 of 0.45.
On to B8, for which the OD450 turned out to be 0.59.
B9 registered an OD450 of 0.94.

The next test addresses T2, human CD19 exon1-3-his protein. In words: ELISA, coated at 2 ug/mL. The protocol: as §1
CD19 protein contains 4 exons in the extracellular region, in which exons 1-3 are located at the membrane-distal end and exon 4 is located at the membrane-proximal end. […] To identify the distribution of antigen binding epitopes of the chimeric antibodies, human CD19 exon 1-3-His (membrane-distal end) was used to coat at 2 μg/mL according to the ELISA method in example 5.1.
Consider B1, for which the binding result is reported as “no binding”.
As for B2, the binding result is recorded as “no binding”.
As for B3, the binding result is “no binding”.
The same measure, in the same setting: for B4 the value was “no binding”; for B5, “no binding”.
Regarding B6, the binding result is reported as “no binding”.
With B7, the binding result is “no binding”.
For B8, the binding result was “no binding”.
For B9, the binding result was “no binding”.

The target in a further test is T3, murine CD19 protein. In words: ELISA, coated murine CD19. The method, then:
as §1
In order to detect the species cross-binding activity of the chimeric antibodies, an ELISA plate was coated with commercial murine CD19 (ACROBiosystems, catalog number: 50510-M08H) and monkey CD19 (ACROBiosystems, catalog number: 90051-C08H), respectively, and the ELISA detection was performed according to the method in example 5.1.
Consider B1, for which the binding result was “no binding”.
On to B2, for which the binding result was “no binding”.
Still for that read-out and setting: then B3, with “no binding”; and B4, with “no binding”; and B5, with “no binding”.
For the molecule B6, the binding result is reported as “no binding”.
As for B7, the binding result is recorded as “no binding”.
The same measure, in the same setting: then B8, with “no binding”.
Consider B9, for which the binding result is given as “no binding”.

The target of another test is T1, Human CD19-his protein. In words: ELISA, antibody at 10 nM. The method, then: as §1
The molecule B1 registered an OD450 of 1.05.
Molecule B2 returned an OD450 of 1.08.
On the same count and under the same terms, for B3 the value was 1.75.
B4 came in with an OD450 of 1.01.
B5 had an OD450 of 0.43.
For B6, the OD450 was determined as 0.46.
As for B7, the OD450 is 0.29.
In turn, B8 returned an OD450 of 0.42.
Molecule B9 gave an OD450 of 0.6.

The target in the next test is T1, Human CD19-his protein. In words: ELISA, antibody at 0.10 nM. The method, then:
as §1
B1: the OD450 came to 0.24.
Molecule B2 yielded an OD450 of 0.39.
Consider B3, for which the OD450 turned out to be 0.5.
Molecule B4 gave an OD450 of 0.11.
B5 gave an OD450 of 0.34.
The same measure, in the same setting: then B6, with 0.08; and B7, with 0.06; and B8, with 0.08.
Take B9: the OD450 was 0.11.

The next test has as its target T1, Human CD19-his protein. Kind of test: ELISA, antibody at 0.0001 nM. The method, then:
as §1
B1 had an OD450 of 0.05.
Same read-out and setting: then B2, with 0.05; and B3, with 0.05.
The molecule B4 showed an OD450 of 0.05.
B5: the OD450 was determined as 0.05.
Consider B6, for which the OD450 was found to be 0.05.
The same measure, in the same setting: then B7, with 0.05.
On to B8, for which the OD450 came to 0.05.
B9 came in with an OD450 of 0.05.

The next test concerns the target T1, Human CD19-his protein. Kind of test: ELISA, antibody at 0.01 nM. The method, then: as §1
With B1, the OD450 worked out at 0.07.
The molecule B2 gave an OD450 of 0.1.
As for B3, the OD450 was found to be 0.11.
In the case of B4, the OD450 was 0.06.
With B5, the OD450 was 0.1.
The molecule B6 yielded an OD450 of 0.05.
The molecule B7 came in with an OD450 of 0.05.
The molecule B8 registered an OD450 of 0.05.
The same measure, in the same setting: then B9, with 0.06.

Another test concerns the target T1, Human CD19-his protein. In words: ELISA, antibody at 0.001 nM. The protocol:
as §1
B1 displayed an OD450 of 0.05.
As for B2, the OD450 was determined as 0.06.
B3: the OD450 came out at 0.06.
On the same count and under the same terms, then B4, with 0.05; and B5, with 0.06; and B6, with 0.05.
In turn, B7 showed an OD450 of 0.05.
For B8, the OD450 is 0.05.
The molecule B9 had an OD450 of 0.05.

For the next test, the target named is T1, Human CD19-his protein. In words: ELISA, antibody at 1.00 nM. The method, then:
as §1
B1 returned an OD450 of 0.74.
As for B2, the OD450 is 0.71.
Regarding B3, the OD450 is 1.38.
The molecule B4 returned an OD450 of 0.42.
For the molecule B5, the OD450 turned out to be 0.45.
In the case of B6, the OD450 is 0.24.
Molecule B7 showed an OD450 of 0.18.
Still for that read-out and setting: then B8, with 0.21; and B9, with 0.36.
